From patent US20110091994A1, “Methods for Screening Compounds for Treating and/or Preventing an Hepatitis C Virus Infection” (priority 2008, published 2011)
Read-outs that look alike come from different tables or passages of the source.

Experiments:
[1] = tested on: HCV ORFs (Gal4-DB fusions); assay type: binding, HCV genotype 1b, isolate con1; details: human protein listed by gene symbol; the value names the HCV protein it interacts with
[2] = biological target: T1, HCV ORFs (Gal4-DB fusions) (Hepatitis C virus genotype 1b, UniProt Q9WMX2); assay type: binding, HCV genotype 1b, isolate con1; details: human protein as prey
T1 construct: expressed in transfected cells; host or cells: Saccharomyces cerevisiae MAV203 (IMAP1) / AH109 (IMAP2)

HCV proteins = biological target: T2, HCV proteins (Hepatitis C virus genotype 1b, UniProt Q9WMX2); test: Validation by Y2H pairwise matrices; assay type: binding;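 further: yeast two-hybrid pairwise tests of interactions first found in Y2H screens of HCV bait proteins against human cDNA libraries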
T2 construct: expressed in transfected cells

[3] = validation of interaction with HCV protein NS3
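Wherever IMAP Y2H IMAP1 (number of IST) is given: yeast two-hybrid screens using HCV genotype 1b proteins fused to Gal4-DB as baits against prey cDNA libraries from human spleen and foetal brain, IMAP1 via transformation and IMAP2 via mating.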
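Wherever Interaction with viral protein is given: yeast two-hybrid screens using HCV genotype 1b proteins fused to Gal4-DB as baits against prey cDNA libraries from human spleen and foetal brain, IMAP1 via transformation and IMAP2 via mating.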

Molecule | Interaction with viral protein [1] | IMAP Y2H IMAP1 (number of IST) ([2]; HCV protein NS4A as bait) | Y2H matrices (HCV proteins; validation of interaction with HCV protein NS4A) | IMAP Y2H IMAP1 (number of IST) ([2]; HCV protein NS3 as bait) | Y2H matrices (HCV proteins; [3]) | IMAP Y2H IMAP1 (number of IST) ([2]; HCV protein NS2 as bait) | Y2H matrices (HCV proteins; validation of interaction with HCV protein NS2)
ELAC2 (protein, UniProt Q9BQ52 17-826, looked up) Zinc phosphodiesterase ELAC …: SQGRTISQAPARRERPRKDPLRHLRTREKRGPSGCSGGPNTVYLQVVAAGSRDSGAALYVFSEFNRYLFNCGEGVQRLMQEHKLKVARLDNIFLTRMHWSNVGGLSGMILTLKETGLPKCVLSGPPQLEKYLEAIKIFSGPLKGIELAVRPHSAPEYEDETMTVYQIPIHSEQRRGKHQPWQSPERPLSRLSPERSSDSESNENEPHLPHGVSQRRGVRDSSLVVAFICKLHLKRGNFLVLKAKEMGLPVGTAAIAPIIAAVKDGKSITHEGREILAEELCTPPDPGAAFVVVECPDESFIQPICENATFQRYQGKADAPVALVVHMAPASVLVDSRYQQWMERFGPDTQHLVLNENCASVHNLRSHKIQTQLNLIHPDIFPLLTSFRCKKEGPTLSVPMVQGECLLKYQLRPRREWQRDAIITCNPEEFIVEALQLPNFQQSVQEYRRSAQDGPAPAEKRSQYPEIIFLGTGSAIPMKIRNVSATLVNISPDTSLLLDCGEGTFGQLCRHYGDQVDRVLGTLAAVFVSHLHADHHTGLPSILLQRERALASLGKPLHPLLVVAPNQLKAWLQQYHNQCQEVLHHISMIPAKCLQEGAEISSPAVERLISSLLRTCDLEEFQTCLVRHCKHAFGCALVHTSGWKVVYSGDTMPCEALVRMGKDATLLIHEATLEDGLEEEAVEKTHSTTSQAISVGMRMNAEFIMLNHFSQRYAKVPLFSPNFSEKVGVAFDHMKVCFGDFPTMPKLIPPLKALFAGDIEEMEERREKRELRQVRAALLSRELAGGLEDGEPQQKRAHTEEPQAKKVRAQ | NS4A | 1 | + |  |  |  | 
ZNF281 (protein, UniProt Q9Y2X9 1-895, looked up) Zinc finger protein 281: MKIGSGFLSGGGGTGSSGGSGSGGGGSGGGGGGGSSGRRAEMEPTFPQGMVMFNHRLPPVTSFTRPAGSAAPPPQCVLSSSTSAAPAAEPPPPPAPDMTFKKEPAASAAAFPSQRTSWGFLQSLVSIKQEKPADPEEQQSHHHHHHHHYGGLFAGAEERSPGLGGGEGGSHGVIQDLSILHQHVQQQPAQHHRDVLLSSSSRTDDHHGTEEPKQDTNVKKAKRPKPESQGIKAKRKPSASSKPSLVGDGEGAILSPSQKPHICDHCSAAFRSSYHLRRHVLIHTGERPFQCSQCSMGFIQKYLLQRHEKIHSREKPFGCDQCSMKFIQKYHMERHKRTHSGEKPYKCDTCQQYFSRTDRLLKHRRTCGEVIVKGATSAEPGSSNHTNMGNLAVLSQGNTSSSRRKTKSKSIAIENKEQKTGKTNESQISNNINMQSYSVEMPTVSSSGGIIGTGIDELQKRVPKLIFKKGSRKNTDKNYLNFVSPLPDIVGQKSLSGKPSGSLGIVSNNSVETIGLLQSTSGKQGQISSNYDDAMQFSKKRRYLPTASSNSAFSINVGHMVSQQSVIQSAGVSVLDNEAPLSLIDSSALNAEIKSCHDKSGIPDEVLQSILDQYSNKSESQKEDPFNIAEPRVDLHTSGEHSELVQEENLSPGTQTPSNDKASMLQEYSKYLQQAFEKSTNASFTLGHGFQFVSLSSPLHNHTLFPEKQIYTTSPLECGFGQSVTSVLPSSLPKPPFGMLFGSQPGLYLSALDATHQQLTPSQELDDLIDSQKNLETSSAFQSSSQKLTSQKEQKNLESSTGFQIPSQELASQIDPQKDIEPRTTYQIENFAQAFGSQFKSGSRVPMTFITNSNGEVDHRVRTSVSDFSGYTNMMSDVSEPCSTRVKTPTSQSYR | NS3 |  |  | 1 | + |  | 
ZNF410 (protein, UniProt Q86VK4 1-478, looked up) Zinc finger protein 410: MLSDELESKPELLVQFVQNTSIPLGQGLVESEAKDITCLSLLPVTEASECSRLMLPDDTTNHSNSSKEVPSSAVLRSLRVNVGPDGEETRAQTVQKSPEFLSTSESSSLLQDLQPSDSTSFILLNLTRAGLGSSAEHLVFVQDEAEDSGNDFLSSESTDSSIPWFLRVQELAHDSLIAATRAQLAKNAKTSSNGENVHLGSGDGQSKDSGPLPQVEKKLKCTVEGCDRTFVWPAHFKYHLKTHRNDRSFICPAEGCGKSFYVLQRLKVHMRTHNGEKPFMCHESGCGKQFTTAGNLKNHRRIHTGEKPFLCEAQGCGRSFAEYSSLRKHLVVHSGEKPHQCQVCGKTFSQSGSRNVHMRKHHLQLGAAGSQEQEQTAEPLMGSSLLEEASVPSKNLVSMNSQPSLGGESLNLPNTNSILGVDDEVLAEGSPRSLSSVPDVTHHLVTMQSGRQSYEVSVLTAVNPQELLNQGDLTERRT | NS3 |  |  | 1 | + |  | 
POU3F2 (protein, UniProt P20265 1-443, looked up) POU domain, class 3, …: MATAASNHYSLLTSSASIVHAEPPGGMQQGAGGYREAQSLVQGDYGALQSNGHPLSHAHQWITALSHGGGGGGGGGGGGGGGGGGGGGDGSPWSTSPLGQPDIKPSVVVQQGGRGDELHGPGALQQQHQQQQQQQQQQQQQQQQQQQQQRPPHLVHHAANHHPGPGAWRSAAAAAHLPPSMGASNGGLLYSQPSFTVNGMLGAGGQPAGLHHHGLRDAHDEPHHADHHPHPHSHPHQQPPPPPPPQGPPGHPGAHHDPHSDEDTPTSDDLEQFAKQFKQRRIKLGFTQADVGLALGTLYGNVFSQTTICRFEALQLSFKNMCKLKPLLNKWLEEADSSSGSPTSIDKIAAQGRKRKKRTSIEVSVKGALESHFLKCPKPSAQEITSLADSLQLEKEVVRVWFCNRRQKEKRMTPPGGTLPGAEDVYGGSRDTPPHHGVQTPVQ | NS2 |  |  |  |  | 1 | +
ZZZ3 (protein, UniProt Q8IYH5 1-903, looked up) ZZ-type zinc …: MAASRSTRVTRSTVGLNGLDESFCGRTLRNRSIAHPEEISSNSQVRSRSPKKRPEPVPIQKGNNNGRTTDLKQQSTRESWVSPRKRGLSSSEKDNIERQAIENCERRQTEPVSPVLKRIKRCLRSEAPNSSEEDSPIKSDKESVEQRSTVVDNDADFQGTKRACRCLILDDCEKREIKKVNVSEEGPLNSAVVEEITGYLAVNGVDDSDSAVINCDDCQPDGNTKQNSIGSYVLQEKSVAENGDTDTQTSMFLDSRKEDSYIDHKVPCTDSQVQVKLEDHKIVTACLPVEHVNQLTTEPATGPFSETQSSLRDSEEEVDVVGDSSASKEQCKENTNNELDTSLESMPASGEPEPSPVLDCVSAQMMSLSEPQEHRYTLRTSPRRAAPTRGSPTKNSSPYRENGQFEENNLSPNETNATVSDNVSQSPTNPGEISQNEKGICCDSQNNGSEGVSKPPSEARLNIGHLPSAKESASQHITEEEDDDPDVYYFESDHVALKHNKDYQRLLQTIAVLEAQRSQAVQDLESLGRHQREALKNPIGFVEKLQKKADIGLPYPQRVVQLPEIVWDQYTHSLGNFEREFKNRKRHTRRVKLVFDKVGLPARPKSPLDPKKDGESLSYSMLPLSDGPEGSSSRPQMIRGRLCDDTKPETFNQLWTVEEQKKLEQLLIKYPPEEVESRRWQKIADELGNRTAKQVASRVQKYFIKLTKAGIPVPGRTPNLYIYSKKSSTSRRQHPLNKHLFKPSTFMTSHEPPVYMDEDDDRSCFHSHMNTAVEDASDDESIPIMYRNLPEYKELLQFKKLKKQKLQQMQAESGFVQHVGFKCDNCGIEPIQGVRWHCQDCPPEMSLDFCDSCSDCLHETDIHKEDHQLEPIYRSETFLDRDYCVSQGTSYNYLDPNYFPANR | NS3 |  |  | 1 | + |  | 
ZHX3 (protein, UniProt Q9H4I2 1-956, looked up) Zinc fingers and homeoboxes …: MASKRKSTTPCMIPVKTVVLQDASMEAQPAETLPEGPQQDLPPEASAASSEAAQNPSSTDGSTLANGHRSTLDGYLYSCKYCDFRSHDMTQFVGHMNSEHTDFNKDPTFVCSGCSFLAKTPEGLSLHNATCHSGEASFVWNVAKPDNHVVVEQSIPESTSTPDLAGEPSAEGADGQAEIIITKTPIMKIMKGKAEAKKIHTLKENVPSQPVGEALPKLSTGEMEVREGDHSFINGAVPVSQASASSAKNPHAANGPLIGTVPVLPAGIAQFLSLQQQPPVHAQHHVHQPLPTAKALPKVMIPLSSIPTYNAAMDSNSFLKNSFHKFPYPTKAELCYLTVVTKYPEEQLKIWFTAQRLKQGISWSPEEIEDARKKMFNTVIQSVPQPTITVLNTPLVASAGNVQHLIQAALPGHVVGQPEGTGGGLLVTQPLMANGLQATSSPLPLTVTSVPKQPGVAPINTVCSNTTSAVKVVNAAQSLLTACPSITSQAFLDASIYKNKKSHEQLSALKGSFCRNQFPGQSEVEHLTKVTGLSTREVRKWFSDRRYHCRNLKGSRAMIPGDHSSIIIDSVPEVSFSPSSKVPEVTCIPTTATLATHPSAKRQSWHQTPDFTPTKYKERAPEQLRALESSFAQNPLPLDEELDRLRSETKMTRREIDSWFSERRKKVNAEETKKAEENASQEEEEAAEDEGGEEDLASELRVSGENGSLEMPSSHILAERKVSPIKINLKNLRVTEANGRNEIPGLGACDPEDDESNKLAEQLPGKVSCKKTAQQRHLLRQLFVQTQWPSNQDYDSIMAQTGLPRPEVVRWFGDSRYALKNGQLKWYEDYKRGNFPPGLLVIAPGNRELLQDYYMTHKMLYEEDLQNLCDKTQMSSQQVKQWFAEKMGEETRAVADTGSEDQGPGTGELTAVHKGMGDTYSEVSENSESWEPRVPEASSEPFDTSSPQAGRQLETD | NS3 |  |  | 4 | + |  | 
